{"source": "paper PMC6733935", "about": "“A convenient and efficient total solid-phase synthesis of DOTA-functionalized tumor-targeting peptides for PET imaging of cancer” (EJNMMI Research, 2019)", "key": {"[1]": {"molecular_target": "T1, BN/GRP receptor-positive MCF7 human breast cancer cells (Homo sapiens, UniProt P30550)", "T1 construct": "BN/GRP receptor-positive MDA-MB-231, MCF7, T47D human breast cancer, and PC3 human prostate cancer lines; host or cells: MDA-MB-231, MCF7, T47D (human breast cancer), PC3 (human prostate cancer); intact cells", "assay": "Saturation binding assay on MCF7 cells", "settings": "n = 3-5 experiments, SD < 15%", "experimental": "(§1) The cell binding of ^68Ga-radiolabeled peptides into BN/GRP receptor-positive MDA-MB-231, MCF7, T47D human breast cancer, and PC3 human prostate cancer lines (American Type Culture Collection, Rockville, MD, USA) was performed according to the method described previously. In brief, ∼ 300,000 cells (in 300 μL in low-serum media) were incubated with various amounts of radiopeptides, ranging between 0.1 and 25 nM of peptide (prepared from the serial dilutions of HPLC-purified radiopeptides), in duplicate for 60 min at room temperature. The initial concentrations of ^68Ga-labeled peptides were determined according to a well-established HPLC technique with simultaneous detection by UV absorbance. As the amount of BN peptide in the reaction mixture was too small to be detected by UV absorption at 220 nm, the radioactive peptide chromatograms from the HPLC analysis were compared (with UV chromatograms) with those of known concentrations of the corresponding nonradioactive peptides for the mass determination. Incubation was terminated by dilution with cold saline (300 μL) and the cells were pelleted by centrifugation. The cell pellets was then rapidly washed with cold saline to remove any unbound peptide and centrifuged to collect supernatants. Radioactivity in the cell pellet and the washings was measured in a γ-counter. Non-specific binding was determined in the presence of ~ 200-fold molar excess of unlabeled BN peptide. Specific binding is calculated by subtracting the non-specifically bound radioactivity from that of the total binding. The dissociation constant (Kd) was calculated using a plot of cell bound activity versus the concentration of the radioligand using GraphPad Prism software (GraphPad Software Inc., San Diego, CA, USA)."}, "[2]": {"assay": "Radio-HPLC retention time as reflection of lipophilicity", "type": "physicochemical", "settings": "chromatographic, econosphere C18 (10 μm, 250 × 4.6 mm), 0.1% TFA water/acetonitrile, 5 to 95% B over 30 min, 1.1 mL/min; radio detection; used as reflection of lipophilicity", "experimental": "The HPLC analysis and purification of the peptides were performed on a Shimadzu HPLC system using econosphere C18 reversed-phase column (10 μm, 250 × 4.6 mm). For all HPLC experiments, a gradient system of 0.1% (v/v) TFA in water (solvent A) and 0.1% (v/v) TFA in acetonitrile (solvent B) at a flow rate of 1.1 mL/min was used. The HPLC gradient began with a solvent composition of 95% A and 5% B from 0 to 2.5 min followed by a linear gradient of 95% A and 5% B to 5% A and 95% B over 30 min. The gradient remained at this position for 3 min before switching back to 95% A and 5% B for another 7 min. The major peak isolated and the acetonitrile was then slowly evaporated under a stream of nitrogen gas. Radiochemical purity was estimated by evaluating radioactivity peaks eluted for each ^68Ga-labeled peptide from the HPLC column and calculating the area under the peak (ROI). The main peak of each radiopeptide was isolated and reconstituted in sterile saline for in vitro and in vivo experiments. Radiolabeling of DOTA-coupled BN peptides with ^68Ga was accomplished simply by mixing ~ 20 μg BN peptide with sodium acetate buffer and ^68GaCl3 followed by heating to complete the labeling reaction. By this facile method, a high and reproducible radiolabeling of peptides with ^68Ga was achieved (up to 95%), with a specific radioactivity of greater than 250 Ci/mmol. […] A radiolabeling efficiency of greater than 90% was obtained in all cases, and it ranged between 90 and 95%. […] RP-HPLC retention times of the major peaks, ranging from 18.3 to 20.3 min, reflected slightly variable lipophilicity of these ^68Ga-complexes (Table 1)."}, "[3]": {"molecular_target": "T2, BN/GRP receptor-positive T47D human breast cancer cells (Homo sapiens, UniProt P30550)", "T2 construct": "BN/GRP receptor-positive MDA-MB-231, MCF7, T47D human breast cancer, and PC3 human prostate cancer lines; host or cells: MDA-MB-231, MCF7, T47D (human breast cancer), PC3 (human prostate cancer); intact cells", "assay": "Saturation binding assay on T47D cells", "settings": "n = 3-5 experiments, SD < 15%", "experimental": "as §1"}, "[4]": {"molecular_target": "T3, BN/GRP receptor-positive PC3 human prostate cancer cells (Homo sapiens, UniProt P30550)", "T3 construct": "BN/GRP receptor-positive MDA-MB-231, MCF7, T47D human breast cancer, and PC3 human prostate cancer lines; host or cells: MDA-MB-231, MCF7, T47D (human breast cancer), PC3 (human prostate cancer); intact cells", "assay": "Saturation binding assay on PC3 cells", "settings": "n = 3-5 experiments, SD < 15%", "experimental": "as §1"}, "MDA-MB-231 tumors": {"test_system": "MDA-MB-231 tumors", "assay": "in vivo", "type": "in vivo, nude mice", "settings": "for Radioactivity in Urine + bladder / Uptake in Blood / Uptake in Intestines (measured without their contents) / Uptake in Kidneys / Uptake in Liver / Uptake in Lungs / Uptake in Muscle / Uptake in Pancreas / Uptake in Spleen / Uptake in Stomach: female, nude, mouse, in vivo; for Uptake in Tumor: nude mice with MDA-MB-231 tumors, mean ± SD, n = 3-5", "experimental": "BN/GRP receptor-positive MDA-MB-231 and PC3 cell lines (American Type Culture Collection, Rockville, USA) were grown as monolayers at 37 °C in a humidified atmosphere containing RPMI-1640 culture media with 10% fetal bovine serum (FBS) in tissue culture flasks. Twenty-four hours prior to conducting the tumor implantation, the media was replaced with RPMI-1640/10% FBS. The cells were grown to 80-90% confluency and harvested by trypsinization. After centrifugation, about 50 million cells were suspended in 1 mL media for implantation into mice. To prepare cells for inoculation, MDA-MB-231 or PC3 cancer cells with media were centrifuged, the media decanted, and the cell pellet was mixed with phosphate-buffered saline (PBS) to reach a concentration of approximately 5 million cells per 100 μL PBS. Human MDA-MB-231 breast cancer xenografts female mouse models were used for in vivo tumor-targeting experiments. For the implantation of tumor xenografts, approximately five million MDA-MB-231 cells in suspension of 100 μL sterile PBS were injected subcutaneously into the left thigh of each mouse. Tumors were allowed to grow for 4-6 weeks by which tumors had reached weights of 200-300 mg. After sufficient growth of tumors, animals were injected with 20-30 μCi of the radiotracers and the animals were sacrificed at specified time points. The uptake of ^68Ga-radiolabeled peptides in the tumors and other major body organs was calculated by γ-counting as described above."}}, "note": "Square brackets hold non-standard residues; d marks the D form. Peptide text beside a SMILES is read from it. * marks the point of attachment. DOTA = O=C(O)CN1CCN(CC(=O)O)CCN(CC(=O)*)CCN(CC(=O)O)CC1; Cha = N[C@@H](CC1CCCCC1)C(=O)O; 4Abz = Nc1ccc(C(=O)O)cc1; Nle = CCCC[C@H](N)C(=O)O", "data": [{"smiles": "CCCC[C@H](NC(=O)[C@H](Cc1c[nH]cn1)NC(=O)[C@H](CC1CCCCC1)NC(=O)[C@@H](NC(=O)[C@H](C)NC(=O)[C@H](Cc1c[nH]c2ccccc12)NC(=O)[C@H](CCC(N)=O)NC(=O)[C@H](CS)NC(=O)CNC(=O)CNC(=O)c1ccc(NC(=O)CN2CCN(CC(=O)O)CCN(CC(=O)O)CCN(CC(=O)O)CC2)cc1)C(C)C)C(=O)N[C@@H](CCSC)C(N)=O", "note": "[^68Ga-DOTA-Abz-BN Tris-, metal not drawn] ({DOTA-4Abz}-GGCQWAV[Cha]H[Nle]M-NH2)", "values": [{"measurement": "Bmax (apparent number of binding sites per cell)", "setting": "[1]", "value": "4.86 × 10^5 sites/cell"}, {"measurement": "Radio-HPLC tR", "setting": "[2]", "value": 19.3, "unit": "min"}, {"measurement": "Bmax (apparent number of binding sites per cell)", "setting": "[3]", "value": "1.0 × 10^5 sites/cell"}, {"measurement": "Bmax (apparent number of binding sites per cell)", "setting": "[4]", "value": "5.90 × 10^5 sites/cell"}, {"measurement": "Radioactivity in Urine + bladder", "setting": "MDA-MB-231 tumors; 1 h", "value": "58.0 ± 6.25 % injected dose per tissue"}, {"measurement": "Uptake in Blood", "setting": "MDA-MB-231 tumors; 1 h", "value": "0.93 ± 0.22", "unit": "% ID/g"}, {"measurement": "Uptake in Intestines (measured without their contents)", "setting": "MDA-MB-231 tumors; 1 h", "value": "1.01 ± 0.17", "unit": "% ID/g"}, {"measurement": "Uptake in Kidneys", "setting": "MDA-MB-231 tumors; 1 h", "value": "6.52 ± 0.60", "unit": "% ID/g"}, {"measurement": "Uptake in Liver", "setting": "MDA-MB-231 tumors; 1 h", "value": "2.28 ± 0.31", "unit": "% ID/g"}, {"measurement": "Uptake in Lungs", "setting": "MDA-MB-231 tumors; 1 h", "value": "1.82 ± 0.30", "unit": "% ID/g"}, {"measurement": "Uptake in Muscle", "setting": "MDA-MB-231 tumors; 1 h", "value": "0.36 ± 0.07", "unit": "% ID/g"}, {"measurement": "Uptake in Pancreas", "setting": "MDA-MB-231 tumors; 1 h", "value": "1.81 ± 0.22", "unit": "% ID/g"}, {"measurement": "Uptake in Spleen", "setting": "MDA-MB-231 tumors; 1 h", "value": "0.18 ± 0.03", "unit": "% ID/g"}, {"measurement": "Uptake in Stomach", "setting": "MDA-MB-231 tumors; 1 h", "value": "1.0 ± 0.20", "unit": "% ID/g"}, {"measurement": "Radioactivity in Urine + bladder", "setting": "MDA-MB-231 tumors; 2 h", "value": "65.0 ± 9.13 % injected dose per tissue"}, {"measurement": "Uptake in Blood", "setting": "MDA-MB-231 tumors; 2 h", "value": "0.64 ± 0.16", "unit": "% ID/g"}, {"measurement": "Uptake in Intestines (measured without their contents)", "setting": "MDA-MB-231 tumors; 2 h", "value": "0.76 ± 0.12", "unit": "% ID/g"}, {"measurement": "Uptake in Kidneys", "setting": "MDA-MB-231 tumors; 2 h", "value": "3.96 ± 0.48", "unit": "% ID/g"}, {"measurement": "Uptake in Liver", "setting": "MDA-MB-231 tumors; 2 h", "value": "1.71 ± 0.20", "unit": "% ID/g"}, {"measurement": "Uptake in Lungs", "setting": "MDA-MB-231 tumors; 2 h", "value": "1.26 ± 0.25", "unit": "% ID/g"}, {"measurement": "Uptake in Muscle", "setting": "MDA-MB-231 tumors; 2 h", "value": "0.28 ± 0.04", "unit": "% ID/g"}, {"measurement": "Uptake in Pancreas", "setting": "MDA-MB-231 tumors; 2 h", "value": "0.93 ± 0.15", "unit": "% ID/g"}, {"measurement": "Uptake in Spleen", "setting": "MDA-MB-231 tumors; 2 h", "value": "0.09 ± 0.02", "unit": "% ID/g"}, {"measurement": "Uptake in Stomach", "setting": "MDA-MB-231 tumors; 2 h", "value": "0.52 ± 0.13", "unit": "% ID/g"}, {"measurement": "Uptake in Tumor", "setting": "MDA-MB-231 tumors; 1 h p.i.", "value": "2.15 ± 0.33", "unit": "% ID/g"}, {"measurement": "Uptake in Tumor", "setting": "MDA-MB-231 tumors; 2 h p.i.", "value": "1.37 ± 0.25", "unit": "% ID/g"}]}]}
